According to patent US7998460B2, “Prevention of deficits in neurogenesis with anti-inflammatory agents” (The Board of Trustees of the Leland Stanford Junior …, priority 2003, dated 2011):

Assays:
Format in all cases: cell-based, rat
[1] = tested on: adult hippocampus-derived neural precursor cells; assay: Proliferation (BrdU) and survival (TUNEL) assays in differentiating neural precursor cultures
Protocol: Proliferation and survival assays BrdU was added to the culture media from hour 24 to hour 48 of the 60 hour paradigm. Immunocytochemistry and confocal microscopy was then used to determine the fraction of GFP+ cells that labeled with BrdU, TUNEL, or type III β-tubulin or doublecortin. TUNEL staining was performed with Apoptag Red (Serologicals, Norcross, Ga.). The fraction of total (DAPI+) nuclei that were TUNEL+ were determined, as well as the fraction of doublecortin positive cells that were also TUNEL+.

[2] = tested on: adult hippocampus-derived neural precursor cells; assay: In vitro neuronal differentiation (doublecortin) of hippocampal neural progenitor cells, 60 hours; details: 60 hours
Excerpt: Neuroinflammation could inhibit neurogenesis by a variety of mechanisms, including stimulation of the HPA axis with subsequent elevation of gluccocorticoids, alterations in the relationships between progenitor cells and cells of the neuro-vasculature, or direct effects of activated microglia on the precursor cells. To determine the extent to which microglial activation might directly affect neural stem/progenitor cells, microglia were stimulated in vitro with LPS. LPS is a potent activator of microglia and up-regulates the elaboration of pro-inflammatory cytokines, including IL-6 and TNF-α. LPS-stimulated or resting microglia were then co-cultured with normal neural stem cells from the hippocampus under conditions that typically stimulate the differentiation of 30 to 40% of the progenitor cells into immature Dcx-expressing neurons (normalized to a value of 1 in FIG. 2A, control). Neurogenesis in the presence of microglia was assessed as the increase or decrease in Dcx-expressing cells relative to control. Co-culture with activated, but not resting, microglia decreased in vitro neurogenesis to approximately half of control levels (FIG. 2A). LPS added directly to precursor cells had no effect on neurogenesis.
To determine if this effect was due to soluble factors or due to cell-cell contact, hippocampal precursor cells were differentiated in the presence of media pre-conditioned by resting or activated microglia.
Activated microglia produce the potent pro-inflammatory cytokines interleukin-1β (IL-1β), tumor necrosis factor-α (TNF-α), interferon-γ (INF-γ) and interleukin-6 (IL-6). Progenitor cells were allowed to differentiate in the presence of each cytokine and the relative expression of Dcx was scored after 60 hours. […] Addition of neutralizing anti-IL-6 antibody to CM from activated microglia was able to fully restore in vitro neurogenesis (FIG. 2A). This implicated IL-6 as a key inhibitor of neurogenesis in microglial CM. […] In contrast to neurogenesis, gliogenesis was unaffected by IL-6 exposure as indicated by the lack of change in the number of cells expressing the astrocyte (glial fibrillary acidic protein, GFAP) or early oligodendrocyte (NG2) markers relative to control cultures (FIG. 2E). The hippocampal precursors used in this study do express the IL-6 receptor, as confirmed by RT-PCR (FIG. 5).
Progenitor Cell Culture Adult hippocampus-derived neural precursor cells were isolated from adult rat hippocampus and cultured as previously described. Briefly, adult female Fisher-344 rats were deeply anesthetized with sodium pentobarbital and were dissected immediately. Hippocampi were enzymatically dissociated with papain (2.5 U/ml; Worthington, Freehold, N.J.)-dispase II (1 U/ml; Boehringer Mannheim, Indianapolis, Ind.)-DNase I (250 U/ml, Worthington) solution. Digested tissue was then washed with DMEM-10% fetal calf serum (FCS) and subsequently mixed with PBS-equilibrated Percoll solution to a final concentration of 35% Percoll. The Percoll solution was made by mixing nine parts of Percoll (Amersham Pharmacia Biotech, Uppsala, Sweden) with one part of 10× PBS. The cell suspension was then fractionated by centrifugation for 10 min at 1000×gravity. Floating myelin and tissue debris were discarded and the cell pellet re-suspended in 65% Percoll solution and fractionated again by centrifugation for 10 min at 1000×g. The floating neural precursors were collected, washed free of Percoll, and plated onto poly-L-ornithine/laminin-coated dishes in DMEM/F12 (1:1) containing 10% FCS medium for 24 hrs; then medium was replaced with serum-free growth medium consisting of DMEM/F12 (1:1) supplemented with N2 supplement (Life Technologies, Gaithersburg, Md.) and 20 ng/ml of human recombinant FGF-2 (Peprotech, Rocky Hill, N.J.). Cell lines were labeled via infection with replication deficient GFP-expressing recombinant retrovirus LZRS-CAMut4GFP. […]

[3] = tested on: Hes1 mRNA; assay: Real-time quantitative RT-PCR of Hes1 in neural precursors; details: 60 hours exposure
Excerpt: Signaling via gp130, the co-receptor of the IL-6 receptor, stimulates the Notch1 pathway, resulting in an increase in expression of the mammalian homolog of hairy-enhancer-of-split, Hes 1, transcription factor and antagonism of pro-neural basic helix-loop-helix (bHLH) genes and hippocampal neurogenesis during development. To determine if IL-6 treatment of adult stem cells leads to an increase in Hes 1 consistent with the reduction in neuronal cell fate, “real-time” quantitative RT-PCR was performed on total RNA extracted from neural precursors exposed for 60 hours to activated microglial CM or IL-6. Both CM and IL-6 caused a dramatic increase in Hes1 mRNA expression (3.2- and 7.7-fold increase respectively, relative to control).
Total RNA isolation, cDNA synthesis, and SYBR Green real-time quantitative RT-PCR. […] Quantitative SYBR Green real time PCR was carried out as described previously. […] Quantitative RT-PCR was performed on ABI 5700 PCR instrument (PerkinElmer Life Sciences) by using 3-stage program parameters provided by the manufacturer as follows; 2 min at 50° C., 10 min at 95° C., and then 40 cycles of 15 s at 95° C. and 1 min at 60° C. […] Each sample was tested in five copies with quantitative PCR, and samples obtained from three independent experiments were used to calculate the means and standard deviations. […]

B1: IL-6: recombinant rat interleukin-6 (protein)
chain: FPTSQVRRGDFTEDTTPNRPVYTTSQVGGLITHVLWEIVEMRKELCNGNSDCMNNDDALAENNLKLPEIQRNDGCYQTGYNQEICLLKISSGLLEYHSYLEYMKNNLKDNKKDKARVLQRDTETLIHIFNQEVKDLHKIVLPTPISNALLTDKLESQKEWLRTKTIQFILKSLEEFLKVTLRSTRQT
For B1, the “fraction of TUNEL-positive apoptotic cells” value ([1]; mean+/-s.e.m., differentiating culture, IL-6 50 ng/ml) was 0.068+/−0.005, the “fraction of TUNEL-positive cells that co-labeled with doublecortin” value ([1]; mean+/-sem) was 0.83+/−0.02 and the “mitotic index (fraction of cells labeled with BrdU in 24 hours)” value ([1]; stem cell cultures) was 95+/−1.7%. The “BrdU labeling within the neuronal progeny” value ([1]; subset of spontaneously forming immature neurons) was 82+/−1.6%, the “gliogenesis (cells expressing GFAP or NG2 relative to control)” value ([2]; IL-6 50 ng/ml) was “unaffected” and the “decrease of in vitro neurogenesis (relative expression of Dcx)” value ([2]; recombinant IL-6 50 ng/ml or TNF-α 20 ng/ml) was “approximately 50%”. For the same molecule, the “increase in Hes1 mRNA expression relative to control” value [3] was 7.7 fold.
